Source: patent US20230235069A1 (KYMAB, published 2023)

Molecular target: T1, human OX40 ligand (human, UniProt P23510 51-183, limits assumed)
T1 construct: also called hOX40L; the target
T1 sequence (looked up): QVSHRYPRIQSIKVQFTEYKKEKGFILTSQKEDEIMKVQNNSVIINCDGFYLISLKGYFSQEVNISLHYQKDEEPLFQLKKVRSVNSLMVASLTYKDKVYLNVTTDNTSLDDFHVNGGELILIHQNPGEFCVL
Experiment: PK ELISA of KY1005 in human serum on coated human OX40 ligand

binding result: binds
B1: KY1005 (antibody, human IgG4 S228P, kappa, V domains shown)
VH: EVQLVESGGGLVQPGGSLRLSCAASGFTFSNYAMNWVRQAPGKGLEWVSTISGSGGATRYADSVKGRFTISRDNSRNTVYLQMNSLRVEDTAVFYCTKDRLIMATVRGPYYYGMDVWGQGTTVTVSS
VL: DIQMTQSPSSLSASVGDRVTITCRASQSISSYLNWYQQKPGKAPNLLIYAASSLQSGVPSRFSGSGSETDFTLTISSLQPEDFATYYCQQSHSVSFTFGPGTKVDIKR
notes: also called 2D10; 02D10
